Consider 4 molecules from US20250197870A1, “RECOMBINANT E. COLI STRAIN PRODUCING 1,3-BUTANEDIOL FROM GLUCOSE AND METHOD FOR PRODUCING 1,3-BUTANEDIOL USING SAME” (ActivON Co.,Ltd., priority 2022, published 2025).

The nature of this series: Activity of purely isolated 3-HBA reductases (alcohol dehydrogenases) for 3-HBA. The following applies: pure enzyme, substrate 3-HBA. It counts as biochemical. Here is the method: The activity of alcohol dehydrogenase was determined by photometric monitoring of the increase/decrease in NADP+/NADPH at 340 nm. The reaction mixture included 50 mM Tris-HCl at pH 7.0. For measurement of forward reactions, preparation was followed to include 0.15 mM NADPH and 5 mM 3-hydroxybutyraldehyde as substrates at 37° C. For reverse reactions, 2 mM NADP+ and 30 mM 1,3-BDO were used as cofactors and substrates, respectively. For the reduction reaction, 1 unit of enzymatic activity was defined as the amount of enzyme required to oxidize 1 μmol of NAD(P)H to NADP+ for 1 minute. For oxidation reactions, 1 unit of enzymatic activity was defined as the amount of enzyme required to reduce 1 μmol of NAD(P)+ to NAD(P)H for 1 minute.
Previously, 4 types of enzymes such as Cs_bdh, Ec_yqhD, Kp_dhaT, and Lr_pduQ were tested with 3-HBA reductase (FIG. 3), of which yqhD showing the best performance was used. However, the constant accumulation of 3-HBA and 3-HB indicates a lack of activity in these enzymes. Four aldoketoreductases (AKRs) were tested to improve the conversion from 3-HBA to 1,3-BDO. Two of the selected AKRs were derived from P. denitrificans, one derived from P. putida, and the other from P. aeruginosa. In addition, ygjB and yahK, also known as E. coli-derived alcohol dehydrogenase (ADH), were tested. Thereamong, enzymes coded by ygjB have been reported to have high activity for various aldehydes, especially high activity for butyraldehyde (kcat/Km, 221 sec-1 mM-1), while the enzyme coded by yahK has also been reported to have high activity for various aldehydes, especially high activity for butyraldehyde (kcat/Km, 19.8 sec-1 mM-1). Several ADH genes were cloned into E. coli, mass-produced, isolated and purified, and then tested for the activity of pure enzymes for 3-HBA.

B1: YahK: E. coli-derived alcohol dehydrogenase, 3-hydroxybutyraldehyde reductase, SEQ ID NO: 36 gene product (protein, listed as Escherichia coli)
chain: MKIKAVGAYSAKQPLEPMDITRREPGPNDVKIEIAYCGVCHSDLHQVRSEWAGTVYPCVPGHEIVGRVVAVGDQVEKYAPGDLVGVGCIVDSCKHCEECEDGLENYCDHMTGTYNSPTPDEPGHTLGGYSQQIVVHERYVLRIRHPQEQLAAVAPLLCAGITTYSPLRHWQAGPGKKVGVVGIGGLGHMGIKLAHAMGAHVVAFTTSEAKREAAKALGADEVVNSRNADEMAAHLKSFDFILNTVAAPHNLDDFTTLLKRDGTMTLVGAPATPHKSPEVFNLIMKRRAIAGSMIGGIPETQEMLDFCAEHGIVADIEMIRADQINEAYERMLRGDVKYRFVIDNRTLTD
On to B1, for which the “Purely isolated enzymatic activity” value was 6.98 U/mg protein.

B2: YgjB (Ahr): E. coli-derived alcohol dehydrogenase, 3-hydroxybutyraldehyde reductase, SEQ ID NO: 35 gene product (protein, listed as Escherichia coli)
chain: MSMIKSYAAKEAGGELEVYEYDPGELRPQDVEVQVDYCGICHSDLSMIDNEWGFSQYPLVAGHEVIGRVVALGSAAQDKGLQVGQRVGIGWTARSCGHCDACISGNQINCEQGAVPTIMNRGGFAEKLRADWQWVIPLPENIDIESAGPLLCGGITVFKPLLMHHITATSRVGVIGIGGLGHIAIKLLHAMGCEVTAFSSNPAKEQEVLAMGADKVVNSRDPQALKALAGQFDLIINTVNVSLDWQPYFEALTYGGNFHTVGAVLTPLSVPAFTLIAGDRSVSGSATGTPYELRKLMRFAARSKVAPTTELFPMSKINDAIQHVRDGKARYRVVLKADF
Consider B2, for which the “Purely isolated enzymatic activity” value was determined as 238 U/mg protein.

B3: DhaT: alcohol dehydrogenase from K. pneumoniae (protein, UniProt Q59477 1-387, looked up)
1,3-propanediol dehydrogenase: MSYRMFDYLVPNVNFFGPNAISVVGERCQLLGGKKALLVTDKGLRAIKDGAVDKTLHYLREAGIEVAIFDGVEPNPKDTNVRDGLAVFRREQCDIIVTVGGGSPHDCGKGIGIAATHEGDLYQYAGIETLTNPLPPIVAVNTTAGTASEVTRHCVLTNTETKVKFVIVSWRNLPSVSINDPLLMIGKPAALTAATGMDALTHAVEAYISKDANPVTDAAAMQAIRLIARNLRQAVALGSNLQARENMAYASLLAGMAFNNANLGYVHAMAHQLGGLYDMPHGVANAVLLPHVARYNLIANPEKFADIAELMGENITGLSTLDAAEKAIAAITRLSMDIGIPQHLRDLGVKEADFPYMAEMALKDGNAFSNPRKGNEQEIAAIFRQAF
As for B3, the “Purely isolated enzymatic activity” value is on record as 0.44 U/mg protein.

B4: YqhD: 3-hydroxybutyraldehyde reductase (E. coli), SEQ ID NO: 34 gene product (protein, UniProt Q46856 1-387, looked up)
NADPH-dependent aldehyde …: MNNFNLHTPTRILFGKGAIAGLREQIPHDARVLITYGGGSVKKTGVLDQVLDALKGMDVLEFGGIEPNPAYETLMNAVKLVREQKVTFLLAVGGGSVLDGTKFIAAAANYPENIDPWHILQTGGKEIKSAIPMGCVLTLPATGSESNAGAVISRKTTGDKQAFHSAHVQPVFAVLDPVYTYTLPPRQVANGVVDAFVHTVEQYVTKPVDAKIQDRFAEGILLTLIEDGPKALKEPENYDVRANVMWAATQALNGLIGAGVPQDWATHMLGHELTAMHGLDHAQTLAIVLPALWNEKRDTKRAKLLQYAERVWNITEGSDDERIDAAIAATRNFFEQLGVPTHLSDYGLDGSSIPALLKKLEEHGMTQLGENHDITLDVSRRIYEAAR
In the case of B4, the “Purely isolated enzymatic activity” value came to 0.06 U/mg protein.
